Source: doi:10.1101/787119 (bioRxiv, 2019)

Biological target: the molecule itself
Test: SEC-MALS

B1: Full-length human dehydrodolichyl diphosphate synthase (DHDDS) (enzyme, UniProt Q86SQ9 1-333, looked up)
chain: MSWIKEGELSLWERFCANIIKAGPMPKHIAFIMDGNRRYAKKCQVERQEGHSQGFNKLAETLRWCLNLGILEVTVYAFSIENFKRSKSEVDGLMDLARQKFSRLMEEKEKLQKHGVCIRVLGDLHLLPLDLQELIAQAVQATKNYNKCFLNVCFAYTSRHEISNAVREMAWGVEQGLLDPSDISESLLDKCLYTNRSPHPDILIRTSGEVRLSDFLLWQTSHSCLVFQPVLWPEYTFWNLFEAILQFQMNHSVLQKARDMYAEERKRQQLERDQATVTEQLLREGLQASGDAQLRRTRLHKLSARREERVQGFLQALELKRADWLARLGTASA
stoichiometry N: 2
